Measured values reported in publication PMC10897201.

How the values were obtained:
[1] = target: CD2 (human) (UniProt P06729)
[2] = target: surface Spycatcher fused to the hinge of hCD52 (human); assay: flow cytometry on cells; titration of purified Spytag-mClover3 on CHO-K1 cells transduced with surface Spycatcher; covalent coupling read by mClover3 fluorescence

Sequence of UniProt P06729 (P06729 25-351): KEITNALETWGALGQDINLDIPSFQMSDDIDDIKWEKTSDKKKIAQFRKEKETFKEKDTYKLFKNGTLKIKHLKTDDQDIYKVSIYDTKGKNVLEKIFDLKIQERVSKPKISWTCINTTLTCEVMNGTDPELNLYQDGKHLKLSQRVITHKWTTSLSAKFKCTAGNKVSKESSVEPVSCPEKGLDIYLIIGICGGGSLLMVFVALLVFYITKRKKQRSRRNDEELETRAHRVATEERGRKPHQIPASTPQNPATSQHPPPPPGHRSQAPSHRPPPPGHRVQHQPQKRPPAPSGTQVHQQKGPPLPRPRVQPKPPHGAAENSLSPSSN

Substance | fold improvement of antigen sensitivity, 4-1BB, 1G4 TCR T cells, with the CD2 ligand against pMHC alone [1] [fold] | fold improvement of antigen sensitivity, 4-1BB, D52N CAR T cells, with the CD2 ligand against pMHC alone [1] [fold] | fold improvement of antigen sensitivity, IL-2, 1G4 TCR T cells, with the CD2 ligand against pMHC alone [1] [fold] | fold improvement of antigen sensitivity, IL-2, D52N CAR T cells, with the CD2 ligand against pMHC alone [1] [fold] | concentration at saturation [2] [µM]
full extracellular domain of CD58 fused to a C-terminal Spytag and Histag (from UniProt P19256 29-215) (ligand) | 230 | 11 | 46 | 3.9 | 
purified mClover3 fused to Spytag |  |  |  |  | 1
